Results from article PMC4514675, “Novel Apo E-Derived ABCA1 Agonist Peptide (CS-6253) Promotes Reverse Cholesterol Transport and Induces Formation of preβ-1 HDL In Vitro” (PLoS ONE, 2015).

What was measured:
human ABCG1 = target: T1, human ABCG1 (Homo sapiens, UniProt P45844); test: ABCG1-mediated cholesterol efflux from BHK-ABCG1 cells; type: cell-based
T1 construct: expressed in transfected cells; host or cells: BHK cells, stably transfected, induced with 10 nmol/l mifepristone
Description: Supplementary file pone.0131997.s009.tif: S8 Fig In-vitro time-dependent ABCG1-mediated cholesterol efflux activity to nHDL-CS-6253 particles generated by BHK cells expressing ABCA1. Unlabeled BHK cells expressing ABCA1 were treated with 0.96 μM lipid free apo A-I or CS-6253 for 18 h as described in experimental procedures in the online-only Supplementary appendix, S1 Appendix. Then the medium was collected and added to 3[H]cholesterol-labeled ABCG1 expressing cells in a time-dependent fashion (0–6h), and assayed for cholesterol efflux (only 6h time point is shown). (TIF) Click here for additional data file.
Supplementary file pone.0131997.s010.tif: S9 Fig In-vitro ABCG1-mediated cholesterol efflux activity to lipid free CS-6253 and nHDL-CS-6253 particles generated by BHK cells expressing ABCA1. Unlabeled ABCA1 expressing cells were treated with increasing concentrations of apo A-I or CS-6253 for 18 h. The medium from unlabeled ABCA1 cells treated as described in experimental procedures, centrifuged to remove cellular debris, added to ^3[H]cholesterol-BHK ABCG1 expressing cells for 6 h, and assayed for efflux as described in the online-only Supplementary appendix, S1 Appendix. Lipid free peptide and apo A-I are also tested against ABCG1 expressing cells for 6h cholesterol efflux. (We selected 1 μM nHDL mimetic or nHDL-apo A-I or lipid free peptide and apo A-I for the figure). […] Efflux of ^3[H]cholesterol is shown as means ± SD of triplicate experiments. (TIF) Click here for additional data file.
All cell culture incubations were performed at 37 °C in a humidified 5% CO2. Cells (J774, or BHK overexpressing human ABCG1) were labeled with 2 μCi/ml ^3H-free cholesterol (Perkin Elmer, Norwalk, Connecticut) for 24 h. Simultaneously J774 cells were incubated with 2 μg/ml ACAT inhibitor (Sandoz, Sigma, Oakville, Canada). Afterward, J774 and BHK-ABCG1 were stimulated with 0.5 mmol/l (cpt-cAMP) (2) or 10 nmol/l mifepristone for 18-20 h, respectively (1). Cells were incubated with various doses of acceptor in media for 6 h for J774 macrophages and BHK-ABCG1 cells. Media were collected, centrifuged at 3.000 g for 5min to remove cell debris, and counted for radioactivity. Cells were lysed in 0.5 ml of (0.1N) NaOH overnight with constant shaking. Further, 0.2 ml cells lysates were mixed with scintillation liquid and counted for radioactivity. Efflux from stimulated cells without acceptor was subtracted from total efflux to determine net efflux. Cholesterol efflux was calculated according to the following formula as the percentage of ^3H-cpm medium/(^3H-cpm medium + ^3H-cpm cells) x 100%. Efflux efficiency (Km) was calculated using the Michaelis-Menten equation (Graph-Pad Prism6 software) respectively (S1, S8 and S9 Figs.)

BHK-mock cells = test: Cholesterol efflux from BHK-mock cells to acceptor in human plasma; type: cell-based, hamster
Description: We investigated cholesterol efflux from BHK cells after adding lipid free CS-6253 to media cell culture or to human EDTA-plasma which had been stored at -80°C. BHK overexpressing human ABCA1 were labeled with 2 μCi/ml ^3H-free cholesterol (Perkin Elmer, Norwalk, Connecticut) for 24 h. Afterward, BHK-ABCA1 were stimulated with 10 nmol/l mifepristone for 18–20 h (13). Cells were incubated with various doses of acceptor in media for 4 h at 37°C. Alternatively, plasma samples were first pre-incubated for 5 min at 37°C in plasma at mole ratios (10:1 or 1:1 relative to plasma apo A-I). To obtain the HDL fraction, apoB lipoproteins were precipitated from plasma by polyethylene glycol (PEG). Also, increased doses of lipid free CS-6253 and nHDL-CS-6253 were tested for cholesterol efflux after incubation with human plasma for optimum 1h at 37°C. ^3[H]-cholesterol loaded BHK cells expressing ABCA1 were incubated with 2.8% apoB depleted plasma samples [19] for 4 h for the efflux assays. Lipid free apo A-I and nHDL-apo A-I were used as control, nHDL-CS-6253 and nHDL-apo A-I were generated after incubation with BHK cells expressing ABCA1. […]
Fig 7 Dose dependent effects of pre-incubation of plasma with lipid free CS-6253, or nHDL-CS-6253 on ABCA1 cholesterol efflux. […] Isolated HDL fractions by PEG were separated by 2D-PAGGE and HDL subpopulations were detected by apo A-I Western blot. […]

[1] = BHK-ABCG1, 6 h, mean ± SD, triplicate

**Q.** How did the Km (human ABCG1; [1]) turn out when apolipoprotein A-I [apo A-I] was run?
**A.** 0.06 ± 0.01 µM

**Q.** And the “Km, ABCG1-mediated cholesterol efflux” value (human ABCG1; [1])?
**A.** 1.7 ± 0.50 µg/mL

**Q.** What about the “Vmax, ABCG1-mediated cholesterol efflux” value (human ABCG1; BHK-ABCG1, mean ± SD, triplicate) of the same substance?
**A.** 0.96 ± 0.01 % efflux/6h

**Q.** What about the “maximum net ABCG1 cholesterol efflux above base line” value (human ABCG1; lipid free, BHK-ABCG1, 6 h) of the same substance?
**A.** 1%

**Q.** And the “maximum efflux capacity, BHK-mock” value (BHK-mock cells; acceptor in human plasma)?
**A.** similar

**Q.** What about the “Vmax, cholesterol efflux, BHK-mock” value (BHK-mock cells; acceptor in human plasma 1 h, 37°C) of the same substance?
**A.** 0.30±0.15 % efflux/6h
